Ends that are not written are not given here. * marks the point of attachment. Biotin = O=C1N[C@H]2[C@H](CS[C@H]2CCCCC(=O)*)N1
T1: GST-PDCD4 recombinant protein (human, UniProt Q53EL6 1-469)
T1 construct: PDCD4 (programmed cell death 4), human, amplified from cDNA of HEK293T cells and cloned into pGEX-6P-1; pGEX-6P-1 is known to add GST at the N-terminus; also called GST-tagged PDCD4; source: E. coli BL21 (DE3), purified (Glutathione Sepharose 4FF)
T1 sequence (looked up): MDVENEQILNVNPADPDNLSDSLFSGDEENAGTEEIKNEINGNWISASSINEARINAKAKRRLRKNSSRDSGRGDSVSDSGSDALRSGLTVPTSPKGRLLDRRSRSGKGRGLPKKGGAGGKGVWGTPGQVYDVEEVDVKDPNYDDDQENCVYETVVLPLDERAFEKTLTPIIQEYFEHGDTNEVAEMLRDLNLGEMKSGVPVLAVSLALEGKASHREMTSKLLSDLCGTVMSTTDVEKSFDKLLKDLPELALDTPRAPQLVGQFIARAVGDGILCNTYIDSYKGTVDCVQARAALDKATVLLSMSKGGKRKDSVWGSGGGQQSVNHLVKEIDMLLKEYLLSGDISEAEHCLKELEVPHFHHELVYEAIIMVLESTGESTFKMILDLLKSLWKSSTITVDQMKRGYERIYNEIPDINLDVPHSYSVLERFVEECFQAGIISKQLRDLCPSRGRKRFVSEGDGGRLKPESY

B1: His-tagged NPM1 N-terminal domain (NPM1-NT, aa 1-117) (domain or fragment, human, UniProt P06748 1-117, looked up)
chain: MEDSMDMDMSPLRPQNYLFGCELKADKDYHFKVDNDENEHQLSLRTVSLGAGAKDELHIVEAEAMNYEGSPIKVTLATLKMSVQPTVSLGGFEITPPVVLRLKCGSGPVHISGQHLV
notes: source: E. coli BL21 (DE3), purified (Ni-NTA)

Tests used:
[1] = biological target: T1, GST-PDCD4 recombinant protein; experiment: pull-down; GST-PDCD4 immobilised on Glutathione Sepharose 4FF beads, incubated with purified His-tagged proteins; SDS-PAGE, Coomassie blue; settings: both partners purified
[2] = biological target: B1; experiment: pull-down; biotinylated PDCD4-NoLS peptide immobilised on streptavidin beads, incubated with purified NPM1 fragment proteins; settings: both partners purified

| Binder | binding result [1] | binding result [2] |
| --- | --- | --- |
| B1 | binds |  |
| Biotin-EARINAKAKRRLRKNSSRDSGRG (PDCD4, human, nucleolar localization signal (NoLS); also called biotinylated PDCD4-NoLS peptides; biotin-tagged PDCD4-NoLS peptide; source: synthetic peptide, bought: GL Biochem; not shown: biotin, N-terminal, kept) [Biotin-PDCD4-NoLS peptide] |  | binds |
